Test results reported in publication PMC10540216, “Activity Guided Azide-methyllysine Photo-trapping for Substrate Profiling of Lysine Demethylases” (Journal of the American Chemical Society, 2023).
“Also recorded” adds a separate entry of the source.

B1: G9a: full-length G9a methyltransferase expressed in HEK293T cells (protein, UniProt Q96KQ7 1-1210, looked up)
chain: MAAAAGAAAAAAAEGEAPAEMGALLLEKETRGATERVHGSLGDTPRSEETLPKATPDSLEPAGPSSPASVTVTVGDEGADTPVGATPLIGDESENLEGDGDLRGGRILLGHATKSFPSSPSKGGSCPSRAKMSMTGAGKSPPSVQSLAMRLLSMPGAQGAAAAGSEPPPATTSPEGQPKVHRARKTMSKPGNGQPPVPEKRPPEIQHFRMSDDVHSLGKVTSDLAKRRKLNSGGGLSEELGSARRSGEVTLTKGDPGSLEEWETVVGDDFSLYYDSYSVDERVDSDSKSEVEALTEQLSEEEEEEEEEEEEEEEEEEEEEEEEDEESGNQSDRSGSSGRRKAKKKWRKDSPWVKPSRKRRKREPPRAKEPRGVNGVGSSGPSEYMEVPLGSLELPSEGTLSPNHAGVSNDTSSLETERGFEELPLCSCRMEAPKIDRISERAGHKCMATESVDGELSGCNAAILKRETMRPSSRVALMVLCETHRARMVKHHCCPGCGYFCTAGTFLECHPDFRVAHRFHKACVSQLNGMVFCPHCGEDASEAQEVTIPRGDGVTPPAGTAAPAPPPLSQDVPGRADTSQPSARMRGHGEPRRPPCDPLADTIDSSGPSLTLPNGGCLSAVGLPLGPGREALEKALVIQESERRKKLRFHPRQLYLSVKQGELQKVILMLLDNLDPNFQSDQQSKRTPLHAAAQKGSVEICHVLLQAGANINAVDKQQRTPLMEAVVNNHLEVARYMVQRGGCVYSKEEDGSTCLHHAAKIGNLEMVSLLLSTGQVDVNAQDSGGWTPIIWAAEHKHIEVIRMLLTRGADVTLTDNEENICLHWASFTGSAAIAEVLLNARCDLHAVNYHGDTPLHIAARESYHDCVLLFLSRGANPELRNKEGDTAWDLTPERSDVWFALQLNRKLRLGVGNRAIRTEKIICRDVARGYENVPIPCVNGVDGEPCPEDYKYISENCETSTMNIDRNITHLQHCTCVDDCSSSNCLCGQLSIRCWYDKDGRLLQEFNKIEPPLIFECNQACSCWRNCKNRVVQSGIKVRLQLYRTAKMGWGVRALQTIPQGTFICEYVGELISDAEADVREDDSYLFDLDNKDGEVYCIDARYYGNISRFINHLCDPNIIPVRVFMLHQDLRFPRIAFFSSRDIRTGEELGFDYGDRFWDIKSKYFTCQCGSEKCKHSAEAIALEQSRLARLDPHPELLPELGSLPPVNT
modifications: full-length
notes: full-length G9a methyltransferase expressed in HEK293T cells
B2: KDM4A: full-length wild-type KDM4A overexpressed in HEK293T cells (protein, UniProt O75164 1-1064, looked up)
chain: MASESETLNPSARIMTFYPTMEEFRNFSRYIAYIESQGAHRAGLAKVVPPKEWKPRASYDDIDDLVIPAPIQQLVTGQSGLFTQYNIQKKAMTVREFRKIANSDKYCTPRYSEFEELERKYWKNLTFNPPIYGADVNGTLYEKHVDEWNIGRLRTILDLVEKESGITIEGVNTPYLYFGMWKTSFAWHTEDMDLYSINYLHFGEPKSWYSVPPEHGKRLERLAKGFFPGSAQSCEAFLRHKMTLISPLMLKKYGIPFDKVTQEAGEFMITFPYGYHAGFNHGFNCAESTNFATRRWIEYGKQAVLCSCRKDMVKISMDVFVRKFQPERYKLWKAGKDNTVIDHTLPTPEAAEFLKESELPPRAGNEEECPEEDMEGVEDGEEGDLKTSLAKHRIGTKRHRVCLEIPQEVSQSELFPKEDLSSEQYEMTECPAALAPVRPTHSSVRQVEDGLTFPDYSDSTEVKFEELKNVKLEEEDEEEEQAAAALDLSVNPASVGGRLVFSGSKKKSSSSLGSGSSRDSISSDSETSEPLSCRAQGQTGVLTVHSYAKGDGRVTVGEPCTRKKGSAARSFSERELAEVADEYMFSLEENKKSKGRRQPLSKLPRHHPLVLQECVSDDETSEQLTPEEEAEETEAWAKPLSQLWQNRPPNFEAEKEFNETMAQQAPHCAVCMIFQTYHQVEFGGFNQNCGNASDLAPQKQRTKPLIPEMCFTSTGCSTDINLSTPYLEEDGTSILVSCKKCSVRVHASCYGVPPAKASEDWMCSRCSANALEEDCCLCSLRGGALQRANDDRWVHVSCAVAILEARFVNIAERSPVDVSKIPLPRFKLKCIFCKKRRKRTAGCCVQCSHGRCPTAFHVSCAQAAGVMMQPDDWPFVVFITCFRHKIPNLERAKGALQSITAGQKVISKHKNGRFYQCEVVRLTTETFYEVNFDDGSFSDNLYPEDIVSQDCLQFGPPAEGEVVQVRWTDGQVYGAKFVASHPIQMYQVEFEDGSQLVVKRDDVYTLDEELPKRVKSRLSVASDMRFNEIFTEKEVKQEKKRQRVINSRYREDYIEPALYRAIME
modifications: full-length

Experiments:
Format in all cases: cell-based, human
CBX1-eIF4A3 interaction [1] = assay: Interactome pull-down of eIF4A3 using recombinant CBX1 from HEK293T nuclear extracts; details: 6xHis CBX1, Ni-NTA beads
[2] = test system: eIF4A3 trimethylation in HEK293T cells; assay: Immunoprecipitation of eIF4A3 from HEK293T cells and Kme3 immunoblot; details: eIF4A3 IP, pan-Kme3 immunoblot, vs control vector or control siRNA
CBX1-eIF4A3 interaction [3] = assay: Immunoprecipitation using CBX1 antibody from HEK293T cells, eIF4A3 immunoblot; details: vs control vector
Method: concentration. The samples were then heated to 65°C for 15 minutes and loaded into a 4-12% polyacrylamide gel for Western blotting.
22. Immunoprecipitation using eIF4A3 and CBX1 antibodies […]
Then 4 mg of nuclear extracts were added and left mixing overnight at 4°C. The following day, the beads were pelleted, and the supernatant was removed.
The beads were washed twice with 50 mM Tris pH 7.5, 100 mM KCl, 0.1% Triton X. Laemmli dye (4X) was added to “elution buffer” from the Protein A Dynabead kit for a final 1X concentration. Each sample received 60 µL of the denaturing elution solution and was then incubated at 65°C for 15 minutes. The beads were pelleted on the magnetic rack and the supernatants were collected to perform Western blots. […]
Each microcentrifuge tube received an CBX1 antibody mixture containing 10 µL antibody (ProteinTech cat. # 10241-2-AP). The antibodies […]
were incubated with the beads using gentle agitation for 1 hour at 4°C. The beads were then washed 2x with conjugation buffer (200 µl of 20 mM sodium phosphate, 0.15M NaCl). BS3 crosslinking solution (250 µl of 5 mM BS3 in conjugation buffer) was added to each aliquot and incubated at room temperature for 20 minutes. The supernatant was removed and a second round of BS3 solution was administered for 5 minutes at room temperature. […]

Molecule	eIF4A3 enrichment by recombinant CBX1 pull-down (CBX1-eIF4A3 interaction [1])	eIF4A3 Kme3 level [2]	eIF4A3 enrichment by endogenous CBX1 (IP) (CBX1-eIF4A3 interaction [3])
B1	maximum enrichment of eIF4A3	increased Kme3 compared to the control vector; also recorded: considerable increase in Kme3 on eIF4A3	increased in G9a-transfected cells; also recorded: robust enrichment of eIF4A3 by CBX1
B2	decreased the association	significantly reduced the Kme3 level; also recorded: robustly deceases eIF4A3 methylation; also recorded: robust eIF4A3 demethylation	decreased in KDM4A-transfected cells; also recorded: reduced it compared to control vector-transfected cells
